Our source for the stoichiometry N values is publication PMC2911289.

Experiment [1] deals with VEGF-B(10–108) (fusion protein) with thioredoxin, His tag and S tag (human). As to the kind of experiment: SDS-PAGE and Western blot. (In general: A western blot detects proteins with antibodies after separation by electrophoresis.)
Experiment [2] concerns the target VEGF-B(10–108), minimal receptor-binding domain of vascular endothelial growth factor-B (untagged dimer) (human). As to the kind of experiment: crystal structure.

“VEGF-B(10–108) (fusion protein) with thioredoxin, His tag and S tag (domain or fragment)” gave a stoichiometry N in experiment [1] of 2.
“VEGF-B(10–108), minimal receptor-binding domain of vascular endothelial growth factor-B (untagged dimer) (domain or fragment)”: the stoichiometry N in experiment [2] came out at 2.

One may read the stoichiometry N as the number of molecules, sites or subunits per partner or assembly.
